Patent US20050100554A1 (published 2005)

T1: gbh_al121903 (human, UniProt Q9Y6D5 1145-1785)
T1 construct: also called cbe_3473488
T1 sequence: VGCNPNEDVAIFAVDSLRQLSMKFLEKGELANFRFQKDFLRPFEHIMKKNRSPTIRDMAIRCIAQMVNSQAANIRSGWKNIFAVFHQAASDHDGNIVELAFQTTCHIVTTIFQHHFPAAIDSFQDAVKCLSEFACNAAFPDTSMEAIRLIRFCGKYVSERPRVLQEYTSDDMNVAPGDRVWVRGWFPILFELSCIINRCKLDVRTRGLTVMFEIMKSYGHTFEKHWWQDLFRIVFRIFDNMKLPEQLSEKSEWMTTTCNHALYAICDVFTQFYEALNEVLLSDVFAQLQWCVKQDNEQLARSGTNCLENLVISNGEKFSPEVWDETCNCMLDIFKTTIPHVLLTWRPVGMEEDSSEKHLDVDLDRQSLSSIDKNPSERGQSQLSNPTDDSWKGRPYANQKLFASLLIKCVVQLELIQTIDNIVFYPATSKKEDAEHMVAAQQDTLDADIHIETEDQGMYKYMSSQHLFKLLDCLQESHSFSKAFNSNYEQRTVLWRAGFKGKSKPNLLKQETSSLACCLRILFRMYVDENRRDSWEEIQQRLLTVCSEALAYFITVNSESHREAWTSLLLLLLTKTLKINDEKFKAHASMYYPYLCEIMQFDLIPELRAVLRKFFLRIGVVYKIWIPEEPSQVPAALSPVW

T2: Human papillomavirus 16 L1 (Human papillomavirus 16, UniProt P03101 1-505)
T2 construct: also called HPV 16 L1; cbe_251784
T2 sequence: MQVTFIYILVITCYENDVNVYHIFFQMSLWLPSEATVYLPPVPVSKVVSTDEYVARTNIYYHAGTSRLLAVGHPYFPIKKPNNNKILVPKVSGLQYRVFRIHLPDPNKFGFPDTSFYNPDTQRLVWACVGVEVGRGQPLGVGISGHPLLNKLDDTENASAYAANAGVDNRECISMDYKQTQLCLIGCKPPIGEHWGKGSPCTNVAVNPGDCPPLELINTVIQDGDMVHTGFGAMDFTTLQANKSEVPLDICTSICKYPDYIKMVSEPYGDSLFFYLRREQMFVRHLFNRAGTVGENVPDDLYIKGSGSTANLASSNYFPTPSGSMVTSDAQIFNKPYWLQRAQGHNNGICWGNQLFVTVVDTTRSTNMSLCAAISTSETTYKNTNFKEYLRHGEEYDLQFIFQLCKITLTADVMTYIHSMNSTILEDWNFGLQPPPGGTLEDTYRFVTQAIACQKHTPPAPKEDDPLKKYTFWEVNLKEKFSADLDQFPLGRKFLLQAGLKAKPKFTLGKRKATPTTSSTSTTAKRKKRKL

T3: Human Papillomavirus 1a E2 (Human Papillomavirus 1a, UniProt P03118 1-401)
T3 construct: also called HPV 1a E2; cbe_251917
T3 sequence: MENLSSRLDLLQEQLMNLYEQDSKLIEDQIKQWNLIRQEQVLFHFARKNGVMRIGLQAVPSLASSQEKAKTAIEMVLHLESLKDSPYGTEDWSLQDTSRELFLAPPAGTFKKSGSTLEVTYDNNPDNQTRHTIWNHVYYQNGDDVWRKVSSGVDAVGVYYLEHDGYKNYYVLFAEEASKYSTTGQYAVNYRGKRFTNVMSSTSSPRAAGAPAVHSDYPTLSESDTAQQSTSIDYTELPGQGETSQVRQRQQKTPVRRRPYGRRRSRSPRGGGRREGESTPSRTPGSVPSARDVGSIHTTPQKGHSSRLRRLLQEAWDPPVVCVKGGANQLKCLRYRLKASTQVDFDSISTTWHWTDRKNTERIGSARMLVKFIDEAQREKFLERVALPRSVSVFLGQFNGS

B1: Human papillomavirus 16 L2 (other)
chain: MRHKRSAKRTKRASATQLYKTCKQAGTCPPDIIPKVEGKTIAVQILQYGSMGVFFGGLGIGTGSGTGGRTGYIPLGTRPPTATDTLAPVRPPLTVDPVGPSDPSIVSLVEETSFIDAGAPTSVPSIPPDVSGFSITTSTDTTPAILDINNTVTTVTTHNNPTFTDPSVLQPPTPAETGGHFTLSSSTISTHNYEEIPMDTFIVSTNPNTVTSSTPIPGSRPVARLGLYSRTTQQVKVVDPAFVTTPTKLITYDNPAYEGIDVDNTLYFSSNDNSINIAPDPDFLDIVALHRPALTSRRTGIRYSRIGNKQTLRTRSGKSIGAKVHYYYDLSTIDPAEEIELQTITPSTYTTTSHAASPTSINNGLYDIYADDFITDTSTTPVPSVPSTSLSGYIPANTTIPFGGAYNIPLVSGPDIPINITDQAPSLIPIVPGSPQYTIIADAGDFYLHPSYYMLRKRRKRLPYFFSDVSLAA
notes: also called HPV 16 L2; cbe_251737
B2: chemokine-like factor 1 (other)
chain: MDNVQPKIKHRPFCFSVKGHVKMLRLALTVTSMTFFIIAQAPEPYIVITGFEVTVILFFILLYVLRLDRLMKWLFWPLLDIINSLVTTVFMLIVSVLALIPETTTLTVGGGVFALVTAVCCLADGALIYRKLLFNPSGPYQKKPVHEKKEVL
notes: also called HSPC224; CKLF1
B3: Rab coupling protein (other)
chain: MSLMVSAGRGLGAVWSPTHVQVTVLQARGLRAKGPGGTSDAYAVIQVGKEKYATSVSERSLGAPVWREEATFELPSLLSSGPAAAATLQLTVLHRALLGLDKFLGRAEVDLRDLHRDQGRRKTQWYKLKSKPGKKDKERGEIEVDIQFMRNNMTASMFDLSMKDKSRNPFGKLKDKIKGKNKDSGSDTASAIIPSTTPSVDSDDESVVKDKKKKSKIKTLLSKSNLQKTPLSQSMSVLPTSKPEKVLLRPGDFQSQWDEDDNEDESSSASDVMSHKRTASTDLKQLNQVNFTLPKKEGLSFLGGLRSKNDVLSRSNVCINGNHVYLEQPQPTGEIKDSSPSSSPSPKGFRKKTLFSSTENLAAGSWKEPAEGGGLSTDRDVSESSTKDSLKSMTLPTYRPAPLISGDLREKMAPANSEATKEAKESKKPESRRSSLLSLMTGKKDVAKGSEGENLLTVPGREKEGMLMGVKPGEDASGPAEDLVRRSEKDTAAVVSRQGSSLNLFEDVQITEPEAEPESKSEPRPPISSPRAPQTRAVKPRLHPVKPMNATATKVANCSLGTATIISENLNNEVMMKKYSPSDPAFAYAQLTHDELIQLVLKQKETISKKEFQVRELEDYIDNLLVRVMEETPNILRIPTQVGKKAGKM
notes: also called Hs.30289; RCP
B4: KIAA0276 (other)
chain: MHSDAAAVNFQLNSHLSTLANIHKIYHTLNKLNLTEDIGQDDHQTGSLRSCSSSDCFNKVMPPRKKRRPASGDDLSAKKSRHDSMYRKYDSTRIKTEEEAFSSKRCLEWFYEYAGTDDVVGPEGMEKFCEDIGVEPENVVMLVLAWKLDAQNMGYFTLQEWLKGMTSLQCDTTEKLRNTLDYLRSFLNDSTNFKLIYRYAFDFAREKDQRSLDINTAKCMLGLLLGKIWPLFPVFHQFLEQSKYKVINKDQWCNVLEFSRTINLDLSNYDEDGAWPVLLDEFVEWYKDKQMS
notes: also called cbe_4270335
B5: HCDI protein (other)
chain: MGWRRKRVPQRGRKAPPPQLHGNINNLYFPIRWRDRLHWDSPNPAAECQRHEVTLVSRKPGPGRITWDELAASGLPSCDAAVNLAGENILNPLRRWNETFQKEVLGSRLETTQLLAKAITKAPQPPKAWVLVTGVAYYQPSLTAEYDEDSPGGDFDFFSNLVTKWEAAARLPGDSTRQVVVRSGVVLGRGGGAMGHMLLPFRLGLGGPIGSGHQFFPWIHIGDLAGILTHALEANHVHGVLNGVAPSSATNAEFAQTLGAALGRRAFIPLPSAVVQAVFGRQRAIMLLEGQKVIPQRTLATGYQYSFPELGAALKEIVA
notes: also called cbe_1505425
B6: crystallin, alpha B (other)
chain: MDIAIHHPWIRRPFFPFHSPSRLFDQFFGEHLLESDLFPTSTSLSPFYLRPPSFLRAPSWFDTGLSEMRLEKDRFSVNLDVKHFSPEELKVKVLGDVIEVHGKHEERQDEHGFISREFHRKYRIPADVDPLTITSSLSSDGVLTVNGPRKQVSGPERTIPITREEKPAVTAAPKK
notes: also called CRYAB; cbe_4281271
B7: Prey2777 (other)
chain: MNPVPHWGEVFLLVGGEGEHLASQGTTPARDHRVGISPASQQAQPESWRRRQRDKGVDPEKAPSLTRQSQNPPSLTAPLGMPSACSCLPCGPAPEAAIILAGPPTALTVLPKGTGLKKSKRLLLESLMRRRIAHLKWGLPRRILESYFLFNFLGSCSLTLAGARLSGLNTGQELQAQQERYCEAQGSPPGLKSPERFQRVQRPDRKSSKLPIQARALERNRPHMSEPIKHFHPA
notes: also called FLJ23584; hypothetical protein FLJ23584
B8: low molecular mass ubiquinone-binding protein (9.5 kD) (other)
chain: MGREFGNLTRMRHVISYSLSPFEQRAYPHVFTKGIPNVLRRIRESFFRVVPQFVVFYLIYTWGTEEFERSKRRIQLPMKMTNEQRIRMTVPCL
notes: also called QP-C; cbe_1710
B9: hypothetical protein MGC3222 (other)
chain: VVSPDSIHSVAPENEGRLVHIIGALRTSKLLSDPNYGVHLPAVKLRRHVEMYQWVETEESREYTEDGQVKKETRYSYNTEWRSEIINSKNFDREIGHNNPSAMAVESFTATAPFVQIGRFFLSSGLIDKVDNFKSLSLSKLEDPHVDIIRRGDFFYHSENPKYPEVGDLRVSFSYAGLSGDDPDLGPAHVVTVIARQRGDQLVPFSTKSGDTLLLLHHGDFSAEVSAVPYSYGGGTSMSFLPSSGYLIRSHYQGS
notes: also called cbe_3583511
B10: eukaryotic translation initiation factor 2B, subunit 2 beta, 39 kDa (other)
chain: MPGSAAKGSELSERIESFVETLKRGGGPRSSEEMARETLGLLRQIITDHRWSNAGELMELIRREGRRMTAAQPSETTVGNMVRRVLKIIREEYGRLHGRSDESDQQESLHKLLTSGGLNEDFSFHYAQLQSNIIEAINELLVELEGTMENIAAQALEHIHSNEVIMTIGFSRTVEAFLKEAARKRKFHVIVAECAPFCQGHEMAVNLSKAGIETTVMTDAAIFAVMSRVNKVIIGTKTILANGALRAVTGTHTLALAAKHHSTPLIVCAPMFKLSPQFPNEEDSFHKFVAPEEVLPFTEGDILEKVSVHCPVFDYVPPELITLFISNIGGNAPSYIYRLMSELYHPDDHVL
notes: also called EIF2B2; cbe_3625721

Key:
[1] = target: T4, signal-induced proliferation-associated 1 like 1 (human, UniProt O43166 1-1804); assay: Y2H; INT ID 184
T4 construct: also called KIAA0440; cbe_3056756

KIAA1389 protein = target: T5, KIAA1389 protein (human, UniProt Q9P2F8 219-1722); assay: Y2H; INT ID 187
T5 construct: also called cbe_3663966

gbh_al121903 = target: T1, gbh_al121903; assay: Y2H; INT ID 185
[2] = target: B1; assay: Y2H; INT ID 188
[3] = target: B1; assay: Y2H; INT ID 189
[4] = target: B1; assay: Y2H; INT ID 191
[5] = target: T2, Human papillomavirus 16 L1; assay: Y2H; INT ID 196
[6] = target: T2, Human papillomavirus 16 L1; assay: Y2H; INT ID 197
[7] = target: T3, Human Papillomavirus 1a E2; assay: Y2H; INT ID 410
[8] = target: T3, Human Papillomavirus 1a E2; assay: Y2H; INT ID 383
[9] = target: T3, Human Papillomavirus 1a E2; assay: Y2H; INT ID 415
[10] = target: T3, Human Papillomavirus 1a E2; assay: Y2H; INT ID 416

T4 sequence (O43166 whole entry): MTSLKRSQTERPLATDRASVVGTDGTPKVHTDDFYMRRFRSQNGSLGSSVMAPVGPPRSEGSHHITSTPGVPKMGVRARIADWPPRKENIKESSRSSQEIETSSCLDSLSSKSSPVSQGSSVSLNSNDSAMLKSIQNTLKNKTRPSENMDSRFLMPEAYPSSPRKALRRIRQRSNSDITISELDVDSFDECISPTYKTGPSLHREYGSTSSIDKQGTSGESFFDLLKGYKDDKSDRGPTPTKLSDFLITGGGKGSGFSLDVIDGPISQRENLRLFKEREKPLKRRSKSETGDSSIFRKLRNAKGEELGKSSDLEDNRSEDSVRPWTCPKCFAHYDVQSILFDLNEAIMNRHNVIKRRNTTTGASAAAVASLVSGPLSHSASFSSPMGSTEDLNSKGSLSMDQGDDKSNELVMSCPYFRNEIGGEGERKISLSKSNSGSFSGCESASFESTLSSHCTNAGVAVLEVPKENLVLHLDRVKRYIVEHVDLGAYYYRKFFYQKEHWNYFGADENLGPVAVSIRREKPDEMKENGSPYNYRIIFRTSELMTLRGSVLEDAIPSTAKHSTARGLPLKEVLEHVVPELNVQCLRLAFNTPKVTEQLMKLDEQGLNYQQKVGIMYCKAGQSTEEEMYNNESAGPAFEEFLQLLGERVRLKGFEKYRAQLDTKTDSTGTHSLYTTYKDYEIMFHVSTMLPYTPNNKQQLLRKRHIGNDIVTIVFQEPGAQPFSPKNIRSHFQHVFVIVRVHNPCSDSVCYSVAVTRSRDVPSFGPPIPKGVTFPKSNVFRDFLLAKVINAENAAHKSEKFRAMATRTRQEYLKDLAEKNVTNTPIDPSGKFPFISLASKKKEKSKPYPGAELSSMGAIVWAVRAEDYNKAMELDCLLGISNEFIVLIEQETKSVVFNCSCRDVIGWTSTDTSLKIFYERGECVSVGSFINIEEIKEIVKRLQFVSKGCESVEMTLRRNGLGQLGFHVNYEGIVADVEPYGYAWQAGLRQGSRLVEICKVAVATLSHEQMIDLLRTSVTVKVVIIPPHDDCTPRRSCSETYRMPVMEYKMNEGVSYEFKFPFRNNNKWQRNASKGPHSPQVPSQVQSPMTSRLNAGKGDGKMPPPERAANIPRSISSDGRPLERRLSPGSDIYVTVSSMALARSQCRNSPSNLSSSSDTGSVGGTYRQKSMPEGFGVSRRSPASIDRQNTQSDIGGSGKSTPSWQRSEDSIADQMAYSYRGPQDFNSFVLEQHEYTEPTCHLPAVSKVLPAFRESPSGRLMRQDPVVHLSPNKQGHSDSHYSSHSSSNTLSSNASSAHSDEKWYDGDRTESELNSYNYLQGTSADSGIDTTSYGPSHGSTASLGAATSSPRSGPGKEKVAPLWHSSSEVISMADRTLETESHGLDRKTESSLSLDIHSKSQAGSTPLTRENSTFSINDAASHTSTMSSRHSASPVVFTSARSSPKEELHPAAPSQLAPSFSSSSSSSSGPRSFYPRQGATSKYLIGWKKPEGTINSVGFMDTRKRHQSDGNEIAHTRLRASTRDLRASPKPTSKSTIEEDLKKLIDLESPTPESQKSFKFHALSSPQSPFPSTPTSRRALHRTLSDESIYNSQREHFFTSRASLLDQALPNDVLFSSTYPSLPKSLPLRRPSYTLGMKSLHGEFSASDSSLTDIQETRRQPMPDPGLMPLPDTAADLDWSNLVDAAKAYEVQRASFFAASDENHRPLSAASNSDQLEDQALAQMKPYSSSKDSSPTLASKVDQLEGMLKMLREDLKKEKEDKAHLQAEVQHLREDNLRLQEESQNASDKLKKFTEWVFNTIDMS
T5 sequence (Q9P2F8 other isoform, or with tags, fused parts or gaps limits assumed): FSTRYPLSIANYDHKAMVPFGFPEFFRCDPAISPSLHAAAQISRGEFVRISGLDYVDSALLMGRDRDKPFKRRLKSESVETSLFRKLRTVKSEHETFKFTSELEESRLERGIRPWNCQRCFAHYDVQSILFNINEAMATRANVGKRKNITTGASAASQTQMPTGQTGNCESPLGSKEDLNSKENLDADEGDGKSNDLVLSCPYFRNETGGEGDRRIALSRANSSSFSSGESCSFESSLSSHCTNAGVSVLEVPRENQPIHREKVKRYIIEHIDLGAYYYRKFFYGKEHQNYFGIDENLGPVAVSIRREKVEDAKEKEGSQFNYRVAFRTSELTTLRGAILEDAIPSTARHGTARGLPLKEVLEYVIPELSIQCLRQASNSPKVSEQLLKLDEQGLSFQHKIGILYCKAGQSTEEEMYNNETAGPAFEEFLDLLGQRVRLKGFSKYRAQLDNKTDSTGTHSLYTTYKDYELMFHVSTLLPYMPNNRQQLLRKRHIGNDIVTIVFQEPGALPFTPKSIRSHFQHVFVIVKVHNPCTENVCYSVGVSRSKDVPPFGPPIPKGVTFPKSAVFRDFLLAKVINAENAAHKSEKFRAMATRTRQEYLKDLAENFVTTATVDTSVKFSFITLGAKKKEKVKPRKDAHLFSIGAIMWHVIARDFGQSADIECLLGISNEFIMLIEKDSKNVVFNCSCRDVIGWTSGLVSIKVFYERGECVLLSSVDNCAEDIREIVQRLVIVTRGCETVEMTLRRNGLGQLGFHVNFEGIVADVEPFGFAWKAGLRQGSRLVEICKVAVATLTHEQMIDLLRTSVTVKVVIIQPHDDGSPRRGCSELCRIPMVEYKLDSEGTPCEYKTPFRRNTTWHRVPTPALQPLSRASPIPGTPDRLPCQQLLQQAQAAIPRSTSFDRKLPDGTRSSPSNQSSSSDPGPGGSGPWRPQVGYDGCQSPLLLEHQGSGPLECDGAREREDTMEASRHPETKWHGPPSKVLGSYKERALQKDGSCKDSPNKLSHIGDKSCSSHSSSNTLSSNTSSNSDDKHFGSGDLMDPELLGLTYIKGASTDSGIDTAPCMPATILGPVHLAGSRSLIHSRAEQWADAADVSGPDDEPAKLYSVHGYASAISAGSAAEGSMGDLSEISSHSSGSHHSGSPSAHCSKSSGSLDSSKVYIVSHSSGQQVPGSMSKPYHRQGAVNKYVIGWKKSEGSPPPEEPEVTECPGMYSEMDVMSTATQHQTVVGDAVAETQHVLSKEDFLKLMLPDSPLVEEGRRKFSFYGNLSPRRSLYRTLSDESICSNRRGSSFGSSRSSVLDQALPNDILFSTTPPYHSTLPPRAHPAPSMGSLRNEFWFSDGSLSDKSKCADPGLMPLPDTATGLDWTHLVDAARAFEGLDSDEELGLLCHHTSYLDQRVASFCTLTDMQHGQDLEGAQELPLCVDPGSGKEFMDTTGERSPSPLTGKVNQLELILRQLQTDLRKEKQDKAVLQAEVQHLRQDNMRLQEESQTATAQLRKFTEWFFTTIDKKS

Q: Which results are given for B1?
A: binding result [1]: binds; binding result (KIAA1389 protein): binds; binding result (gbh_al121903): binds

Q: Does B2 bind [2]?
A: binds

Q: Does B3 bind [3]?
A: binds

Q: Does B4 bind [4]?
A: binds

Q: Does B5 bind [5]?
A: binds

Q: Does B6 bind [6]?
A: binds

Q: Does B7 bind [7]?
A: binds

Q: Does B8 bind [8]?
A: binds

Q: Does B9 bind [9]?
A: binds

Q: Does B10 bind [10]?
A: binds
